# pKd: −log10 of the molar value.
# Target: CPSF6_(276–290/F284A) peptide (human)
# Assay: fluorescence polarisation; 150 nM FITC-Ahx-labelled peptide mixed with increasing capsid NTD protein (2 μM to 2 mM) in 50 mM Tris-HCl pH 8.0, 50 mM NaCl, 384-well plates; one-site specific binding model; the EIAV constants are called apparent
row,Substance,pKd
1,HIV-1 capsid N-terminal domain (NTD) protein (domain or fragment),< 2.22
2,MLV capsid N-terminal domain (NTD) protein (domain or fragment),< 2.10
